Earlier results, collected in publication PMC8810291.

Target: FNIP1 (Homo sapiens) (UniProt Q8TF40)
Sequence (Q8TF40 whole entry): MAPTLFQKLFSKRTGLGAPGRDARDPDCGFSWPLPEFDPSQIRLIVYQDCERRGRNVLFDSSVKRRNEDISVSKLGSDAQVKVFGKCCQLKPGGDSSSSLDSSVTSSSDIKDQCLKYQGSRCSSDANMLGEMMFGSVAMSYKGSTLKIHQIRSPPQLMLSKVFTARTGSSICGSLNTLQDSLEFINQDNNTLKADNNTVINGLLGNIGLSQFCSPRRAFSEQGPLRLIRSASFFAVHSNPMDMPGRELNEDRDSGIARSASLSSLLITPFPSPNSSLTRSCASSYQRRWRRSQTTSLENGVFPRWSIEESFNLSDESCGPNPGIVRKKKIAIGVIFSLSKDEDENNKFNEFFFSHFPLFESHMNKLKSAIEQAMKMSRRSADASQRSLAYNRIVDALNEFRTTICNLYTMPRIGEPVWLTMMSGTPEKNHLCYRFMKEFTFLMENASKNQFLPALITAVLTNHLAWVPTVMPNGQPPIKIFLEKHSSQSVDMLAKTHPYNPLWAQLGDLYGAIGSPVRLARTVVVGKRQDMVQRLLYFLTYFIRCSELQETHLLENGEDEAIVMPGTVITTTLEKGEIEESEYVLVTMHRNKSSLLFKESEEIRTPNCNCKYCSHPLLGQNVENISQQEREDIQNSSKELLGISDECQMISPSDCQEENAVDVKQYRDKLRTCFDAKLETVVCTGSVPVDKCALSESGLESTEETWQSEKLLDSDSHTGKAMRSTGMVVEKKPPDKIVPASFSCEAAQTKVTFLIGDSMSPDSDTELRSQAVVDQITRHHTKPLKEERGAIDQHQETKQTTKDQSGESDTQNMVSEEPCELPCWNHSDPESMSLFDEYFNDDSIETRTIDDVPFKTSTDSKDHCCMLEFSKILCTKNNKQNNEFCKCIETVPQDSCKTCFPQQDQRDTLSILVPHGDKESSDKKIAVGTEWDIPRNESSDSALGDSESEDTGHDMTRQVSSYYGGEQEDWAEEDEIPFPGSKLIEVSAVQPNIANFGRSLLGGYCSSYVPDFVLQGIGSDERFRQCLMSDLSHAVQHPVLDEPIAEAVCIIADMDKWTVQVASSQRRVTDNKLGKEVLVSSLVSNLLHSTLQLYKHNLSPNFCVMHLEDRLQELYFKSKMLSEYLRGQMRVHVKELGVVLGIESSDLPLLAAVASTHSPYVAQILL

FEM1B, sequence (Q9UK73 whole entry): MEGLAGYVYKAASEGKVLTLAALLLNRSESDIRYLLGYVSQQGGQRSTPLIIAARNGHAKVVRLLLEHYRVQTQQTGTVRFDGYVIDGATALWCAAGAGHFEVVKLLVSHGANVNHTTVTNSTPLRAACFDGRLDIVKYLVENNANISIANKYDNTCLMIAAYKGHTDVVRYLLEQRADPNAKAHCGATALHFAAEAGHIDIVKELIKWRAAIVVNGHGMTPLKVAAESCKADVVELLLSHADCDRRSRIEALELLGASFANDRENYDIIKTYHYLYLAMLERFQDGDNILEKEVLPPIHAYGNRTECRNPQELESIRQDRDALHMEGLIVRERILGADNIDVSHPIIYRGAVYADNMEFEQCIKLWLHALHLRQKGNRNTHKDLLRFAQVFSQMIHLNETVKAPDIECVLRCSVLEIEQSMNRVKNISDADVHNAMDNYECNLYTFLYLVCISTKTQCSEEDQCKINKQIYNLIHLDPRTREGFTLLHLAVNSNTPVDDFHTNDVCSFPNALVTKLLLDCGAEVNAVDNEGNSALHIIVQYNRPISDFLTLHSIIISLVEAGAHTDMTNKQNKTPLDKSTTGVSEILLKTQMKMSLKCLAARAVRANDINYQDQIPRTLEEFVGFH

Kd: 20 nM
Substance: FEM1B (from UniProt Q9UK73)
